Patent US8809529B2, “Imidazo[1,2-α]pyrazine derivatives” (Promega Corporation, priority 2010, dated 2014)
Read-outs that look alike come from different tables or passages of the source.

How the values were obtained:
HEK293 cells [1] = details: human, 24 h
L27V02 enzyme = molecular target: T1, L27V02 enzyme (Oplophorus gracilirostris, UniProt Q9GV45, A31E/A60N/A81I/F95D/I117V/K70R/L54V/L99Q/M102K/N193R/P142E/Q151K/Q38R/Q45L/V71I/Y165I); assay: Luminescence of compounds with purified L27V02 enzyme; assay type: biochemical; details: 20 μM compound, 36 pM L27V02, pH 7, 3 min
T1 construct: The N-terminus of the OgLuc variant L27V is methionine, valine and phenylalanine, i.e., MVF; made in house
Procedure: Compounds PBI-4525, PBI-4540 and PBI-4541 were screened for their ability to detect luminescence. […] The assay reagent was then mixed with 36 pM purified L27V02 enzyme (described in Example 25B), in DMEM without Phenol Red and 0.1% PRIONEX®. As a control, assay buffer with 20 μM PBI-3939 or PBI-4528 was used. Luminescence was measured as previously described 3 min after the assay reagent was added to the enzyme mixture.

[2] = Stability of coelenterazines in reporter reagent buffer (T90); details: time for luminescent signal to decay by 10% at 22° C.; read with OgLuc variant IV lysate
HEK293 cells [3] = assay: Toxicity of coelenterazines in HEK293 cells (CELLTITER-GLO); details: 24 hrs after compound addition
[4] = Enzyme kinetics of OgLuc variants (Km, Vmax); assay type: biochemical, E. coli; details: PBI-3939, average of three replicates
Procedure: Using methods known in the art, enzyme kinetic assays measuring luminescence were performed with the lysates of E. coli containing N and the IV variants 15C1, 9B8, 9F6, and 9A3. […] Two fold serial dilutions of PBI-3939 in the assay buffer described previously in Example 26 were assayed with the diluted lysates. […] Variants 9B8 and 9F6 had higher Km values compared to IV while Km values for the other variants were unchanged.
Luminescence was measured on a TECAN® INFINITE® F500 luminometer.
The enzyme kinetics values were determined for the OgLuc variants as described previously, except luminescence was measured using a GLOMAX® luminometer. Three replicates were used for each variant.

[5] = Luminescence of OgLuc variants expressed in HEK293 cells; assay type: cell-based, human
Procedure: (§1) The PCR library in the pF4Ag-based non-fusion background was screened for additional variants with increased luminescence compared to 9B8 opt+K33N+170G (SEQ ID NOs: 68 and 69). Selected variants were then assayed in HEK293 and NIH3T3 cells. For each cell type, 15,000 cells were plated and grown overnight at 37° C. The next day, the cells were transfected as described in Example 25 with 10 ng pGL4.13 (Promega Corp.) as a transfection control and 100 ng of the OgLuc test DNA. The media was removed, and the cells were lysed with 100 μL of lysis buffer as described in Example 25 except the lysis buffer contained 100 mM MES pH 6.0 instead of HEPES, and luminescence measured using a GLOMAX® Luminometer.
(§2) Based on the above data, further combination variants were designed and generated (see Table 10) in the context of the pF4Ag-based non-fusion vector background without the 170G. The variants were analyzed in E. coli, HEK293 and NIH3T3 cells as described above and compared to 9B8 opt+K33N. The variants were also examined for luminescence with native coelenterazine.
(§3) The brightness of the variants expressed in HEK293 and NIH3T3 cells was measured as described previously. The luminescence of the variants was normalized to the luminescence generated by 9B8 opt (Table 27).
(§4) The variants 9B8 opt+K33N+T39T+K43R+Y68D (“V2”; SEQ ID NOs: 92 and 93), 9B8 opt+K33N+L27V+K43R+Y68D (SEQ ID NOs: 339 and 340), 9B8 opt+K33N+L27V+T39T+K43R+S66N (SEQ ID NOs: 341 and 342), and 9B8 opt+K33N+L27V+T39T+K43R+Y68D (“L27V”; SEQ ID NOs: 88 and 89) were subcloned into the Id-OgLuc-HT7 sandwich background as described above and assayed in HEK293 and NIH3T3 cells as described above. The luminescence generated by the sandwiched variants were compared to the luminescence generated by the […] sandwich (SEQ ID NOs: 59 and 60) (Table 38). The L27V sandwich (SEQ ID NOs: 90 and 91) and V2 sandwich (SEQ ID NOs: 94 and 95) had at least 1.3× fold-increase in luminescence in HEK293 and NIH3T3 cells.
(§5) The sandwich and non-sandwich versions of the variants V2, 9B8 opt+K33N+L27V+K43R+Y68D, 9B8 opt+K33N+L27V+T39T+K43R+S66N, and L27V were assayed in HEK293 and NIH3T3 cells as described in Example 37. The luminescence generated by the non-sandwiched variants was compared to the luminescence generated by the sandwiched variants (Table 39).

[6] = assay type: physicochemical, E. coli; details: 60° C., assay buffer 100 mM MES pH 6.0
Procedure: Aliquots were removed at different time-points and placed on dry ice to freeze the samples. […] Luminescence was measured on a GLOMAX® luminometer (Promega Corp.).
The thermal stability of the variants at 60° C. was examined as described above, except the assay buffer contained 100 mM MES pH 6.0 instead of HEPES.

[7] = assay type: biochemical, E. coli
Procedure: The signal stability of 15C1 with PBI-3945 and 9B8 with PBI-3889 was measured and compared to IV. E. coli containing plasmid DNA encoding 15C1, 9B8, or IV were grown and induced as described previously in 8-well replicates. Cells were lysed using a lysis buffer containing of 300 mM HEPES pH 8.0, 0.3× Passive Lysis Buffer (“PLB”; Promega Corp. Cat. No. E194A), 0.3 mg/mL lysozyme, and 0.003 U/μL RQ1 DNase. Lysates were diluted 1:1000 in lysis buffer and measured for luminescence using a TECAN® INFINITE® F500 luminometer. Measurements were taken immediately after the addition to 10 μL of diluted lysate sample of 50 μL of “Glo” 0.5% TERGITOL assay buffer (“0.5% TERGITOL”), which contained 150 mM KCl, 1 mM CDTA, 10 mM DTT, 100 mM thiourea, 0.5% TERGITOL® NP-9 (v/v), and 20 μM of either novel coelenterazines PBI-3945 or PBI 3889.
The signal stability of the variants was determined by re-reading the plate every 30 seconds for a length of time after the addition of the assay buffer to the sample. The signal half-life was determined from these measurements using methods known in the art. The average signal half-life was compared between the variants and IV. […] At t=10 min, luminescence for 15C1 with PBI-3945 and 9B8 with PBI-3889 were equivalent.
E. coli lysates containing the variants were prepared and analyzed as described previously except the assay buffer contained 0.25% TERGITOL® NP-9 (v/v), 100 mM MES pH 6.0, 1 mM CDTA, 150 mM KCl, 35 mM thiourea, 2 mM DTT, and 20 μM PBI-3939.

[8] = Luminescence of OgLuc variants expressed in NIH3T3 cells; assay type: cell-based
Procedure: as §1, §2, §3, §4, §5

[9] = Brightness and relative specificity of 9B8 and 9B8 opt+K33N variants in E. coli lysates; assay type: biochemical
Procedure: Additional variants with improved relative specificity to novel PBI-3939 were generated as described previously by saturating amino acid positions 18, 68, 72, 75, and 90 in variant 9B8. […] Relative specificity was determined from the ratio of the luminescence of the variant with PBI-3939 to the luminescence of the variant with native coelenterazine, normalized to the ratio of corresponding luminescence of 9B8. Table 8 lists 9B8 variants (“Variant”) with at least 1.1× fold-increase in relative specificity for PBI-3939. […] 9B8 variants with amino acid substitutions K, D, F, G, Y, W, and H at position 18 had the highest fold improvement in relative specificity.
A new OgLuc library was created using 9B8opt+K33N as a starting template. The random library was created using DIVERSIFY® PCR Random Mutagenesis Kit (ClonTech; Catalog #630703). Condition 5 (as listed in the user manual) was used to generate additional variants, and the average mutation rate was calculated to be 2.6 mutations per gene by compiling sequence data from 83 randomly selected clones. This PCR library was cloned into the pF4Ag-based, non-fusion vector background described previously and the sandwich background, i.e., Id-OgLuc-HT7 (described in Example 45). Variants in the pF4Ag-base non-fusion vector background are designated with (NF). Variants in the sandwich vector background are designated with (F). In order to clone the PCR product into both vectors, an amino acid, i.e., a glycine, was appended to the variant sequence in pF4Ag, generating a new position 170 in the OgLuc variant (“170G”). The 170G is present in the sandwich construct, but in this case is considered part of the linker between OgLuc and HT7. For each library, 4,400 E. coli clones were assayed as described previously with the following exceptions. […] The assay buffer contained 100 mM MES pH 6.0 instead of HEPES, and 35 mM thiourea. The assay volumes were as follows: 10 μL cells, 40 μL lysis buffer, and 50 μL assay buffer.
as §2
E. coli lysates containing the variants were prepared and analyzed as described previously. Luminescence generated from the lysates was measured using the novel PBI-3939 and native coelenterazine as substrates. The luminescence of the variants was normalized to the luminescence generated by 9B8 opt (Table 12). The relative specificity of the variants for PBI-3939 and native coelenterazine was calculated by dividing the luminescence of the variants using PBI-3939 as a substrate with the luminescence of the variants using native coelenterazine as a substrate (Table 12).

[10] = relative specificity for PBI-3939

Molecule: O=c1c(Cc2ccc(O)cc2)nc2c(Cc3ccccc3)[nH]c(-c3ccccc3)cn1-2 [PBI-3840, 8-benzyl-2-(4-hydroxybenzyl)-6-phenylimidazo[1,2-a]pyrazin-3(7H)-one]
- Viability (normalized to vehicle (DMSO) control) (%) (HEK293 cells [1]): 60%

Molecule: O=c1c(Cc2cccs2)nc2c(Cc3ccccc3)[nH]c(-c3ccccc3)cn1-2 [PBI-3889, 8-benzyl-6-phenyl-2-(thiophen-2-ylmethyl)imidazo[1,2-a]pyrazin-3(7H)-one]
- Stability (pH 8) (T90 in hrs): 2.9 hrs
- Viability (normalized to vehicle (DMSO) control) (%) (HEK293 cells [1]): 90%

Molecule: Cc1[nH]c(-c2ccccc2)cn2c(=O)c(Cc3ccc(O)cc3)nc1-2 [PBI-3896, 2-(4-hydroxybenzyl)-8-methyl-6-phenylimidazo[1,2-a]pyrazin-3(7H)-one]
- Stability (pH 8) (T90 in hrs): 2.8 hrs

Molecule: Cn1ccnc1Cc1nc2c(Cc3ccccc3)[nH]c(-c3ccccc3)cn-2c1=O [PBI-4525, 8-benzyl-2-((1-methyl-1H-imidazol-2-yl)methyl)-6-phenylimidazo[1,2-a]pyrazin-3(7H)-one]
- RLU (L27V02 enzyme): 20,655 RLU

Molecule: O=c1c(Cc2ncc[nH]2)nc2c(Cc3ccccc3)[nH]c(-c3ccccc3)cn1-2 [PBI-4541, 2-((1H-imidazol-2-yl)methyl)-8-benzyl-6-phenylimidazo[1,2-a]pyrazin-3(7H)-one]
- RLU (L27V02 enzyme): 5,676 RLU

Molecule: O=c1c(Cc2ccco2)nc2c(Cc3ccccc3)[nH]c(-c3ccc(O)cc3)cn1-2 [PBI-3945]
- Stability (pH 8) (T90 in hrs) [2]: 3.3 hrs
- Viability (normalized to vehicle (DMSO) control) (%) (HEK293 cells [3]): 100%

Molecule: O=c1c(Cc2ccccc2)nc2c(Cc3ccccc3)[nH]c(-c3ccccc3)cn1-2 [Coelenterazine hh, bis-deoxycoelenterazine, reference compound]
- Stability (pH 8) (T90 in hrs) [2]: 2.0 hrs
- Viability (normalized to vehicle (DMSO) control) (%) (HEK293 cells [3]): 87%

Molecule: Oc1ccc(Cc2nc3c(Cc4ccccc4)nc(-c4ccc(O)cc4)cn3c2O)cc1 [Native coelenterazine, coelenterazine, reference compound]
- Stability (pH 8) (T90 in hrs): 1.7 hrs
- Viability (normalized to vehicle (DMSO) control) (%) (HEK293 cells [1]): 100%

Molecule: O=c1c(Cc2cccs2)nc2c(Cc3ccccc3)[nH]c(-c3ccc(O)cc3)cn1-2 [PBI-4002]
- Stability (pH 8) (T90 in hrs) [2]: 3.5 hrs
- Viability (normalized to vehicle (DMSO) control) (%) (HEK293 cells [3]): 100%

B1: L27V, K43R, Y68D: 9B8 opt+K33N+L27V+K43R+Y68D (protein)
chain: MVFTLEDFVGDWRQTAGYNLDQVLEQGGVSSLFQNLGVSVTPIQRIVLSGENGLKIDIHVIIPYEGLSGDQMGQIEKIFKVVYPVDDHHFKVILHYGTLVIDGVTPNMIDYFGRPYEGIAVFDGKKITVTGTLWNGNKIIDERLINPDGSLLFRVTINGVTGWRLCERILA
- Km [4]: 13.7 µM
- Vmax [4]: 130,000,000 RLU/0.5 sec
- Fold-Decrease in Luminescence in the Presence of Sandwich Background: HEK 293 [5]: 8
- Fold over 9B8 opt + K33N: HEK293 ([5]; luminescence, PBI-3939): 0.9
- Increase in Luminescence: HEK293 ([5]; normalized to 9B8 opt): 1.6
- Fold over Native Coelenterazine: HEK293 [5, 10]: 101
- ½ life hours [6]: 23.2 h
- signal half life [7]: 2.03 h
- Fold-Decrease in Luminescence in the Presence of Sandwich Background: NIH 3T3 cells [8]: 22
- Fold over 9B8 opt + K33N: NIH3T3 ([8]; luminescence, PBI-3939): 0.8
- Increase in Luminescence: NIH3T3 ([8]; normalized to 9B8 opt): 1.5
- Fold over Native Coelenterazine: NIH3T3 [8, 10]: 98
- Fold over coelenterazine ([9]; bacterial lysates, PBI-3939 luminescence divided by native coelenterazine luminescence): 110
- Fold over 9B8 ([9]; bacterial lysates, luminescence normalized to 9B8 opt): 1.3
- fold-increase in relative specificity over 9B8 opt+K33N ([9]; in the three cell types examined): 5 ×
- Fold over 9B8 opt + K33N: E. coli ([9]; luminescence, PBI-3939): 1.2
- Fold over Native Coelenterazine: E. coli [9, 10]: 98.3
